Reference: US20220249621A1

Target: EphB4 on CD4+ T cells isolated from the spleens of tumor-bearing mice (mouse) (UniProt P54761)
Experiment: cell-based or functional assay

UniProt P54761, sequence (P54761 16-987): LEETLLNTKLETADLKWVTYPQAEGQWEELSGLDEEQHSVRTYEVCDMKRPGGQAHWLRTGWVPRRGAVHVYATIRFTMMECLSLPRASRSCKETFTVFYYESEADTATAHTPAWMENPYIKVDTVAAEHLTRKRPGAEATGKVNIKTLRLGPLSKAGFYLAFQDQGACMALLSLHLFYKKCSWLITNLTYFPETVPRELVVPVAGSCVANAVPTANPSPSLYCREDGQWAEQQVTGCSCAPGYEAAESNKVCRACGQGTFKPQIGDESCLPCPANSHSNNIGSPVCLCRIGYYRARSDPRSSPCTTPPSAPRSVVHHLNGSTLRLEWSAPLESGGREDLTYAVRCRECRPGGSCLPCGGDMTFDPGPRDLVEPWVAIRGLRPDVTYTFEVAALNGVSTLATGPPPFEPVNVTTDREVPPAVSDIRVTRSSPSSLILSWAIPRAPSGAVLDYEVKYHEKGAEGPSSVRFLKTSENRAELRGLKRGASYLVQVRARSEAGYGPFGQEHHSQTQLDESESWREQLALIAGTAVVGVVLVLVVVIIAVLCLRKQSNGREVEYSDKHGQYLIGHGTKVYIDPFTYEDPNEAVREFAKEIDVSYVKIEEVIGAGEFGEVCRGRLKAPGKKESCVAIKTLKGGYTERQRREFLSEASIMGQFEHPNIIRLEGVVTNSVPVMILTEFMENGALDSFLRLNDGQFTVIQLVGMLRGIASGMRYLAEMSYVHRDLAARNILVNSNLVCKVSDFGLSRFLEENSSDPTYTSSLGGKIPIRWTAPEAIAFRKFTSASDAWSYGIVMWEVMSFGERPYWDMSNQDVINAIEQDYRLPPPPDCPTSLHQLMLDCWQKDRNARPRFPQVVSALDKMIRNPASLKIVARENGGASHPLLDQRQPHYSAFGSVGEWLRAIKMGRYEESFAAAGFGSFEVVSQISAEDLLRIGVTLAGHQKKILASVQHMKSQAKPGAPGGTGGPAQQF

fold decrease in Ki67 expressing Tregs (flow cytometry): 1.7 fold
Substance: recombinant ephrin-B2-Fc (Fc fusion)
